Results as given in PMC6765112, “Specificity of MYB interactions relies on motifs in ordered and disordered contexts” (Nucleic Acids Research, 2019).
Numbering of substitutions follows the chain as printed. Names and notes keep the numbering of the source. “Also recorded” adds a separate entry of the source. Where two headings read alike, the source gives them in different places. Ends that are not written are not given here. Peptide text beside a SMILES is read from it. * marks the point of attachment. Biotin = O=C1N[C@H]2[C@H](CS[C@H]2CCCCC(=O)*)N1

T1: MYC4 N-terminal domain (L55-N253; MYC4Nt) (Arabidopsis thaliana, UniProt O49687)
T1 construct: MYC4 N-terminal domain (L55-N253; MYC4Nt) using a C-terminal 6×His tag; made in house; host or cells: Escherichia coli BL21(DE3), pET52u plasmid
T1 sequence (O49687 55-253): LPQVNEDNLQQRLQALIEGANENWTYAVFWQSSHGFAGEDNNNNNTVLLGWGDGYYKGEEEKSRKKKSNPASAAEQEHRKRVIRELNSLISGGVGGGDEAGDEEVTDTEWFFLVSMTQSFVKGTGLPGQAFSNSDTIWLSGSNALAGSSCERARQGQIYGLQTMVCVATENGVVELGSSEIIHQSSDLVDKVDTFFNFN

T2: MYC4 N-terminal domain (L55-N253) (Arabidopsis thaliana, UniProt O49687 55-253)
T2 chain: T1 sequence (O49687 55-253)

B1: L190V-MIM peptide (F180-G201 of MYB29, L190V) (peptide)
peptide: Biotin-FKRSSSTSKLVNKVAARASSMG
B2: MYB75: full-length MYB75 (MYB subgroup 6), control prey for GL3 (protein)
chain: MEGSSKGLRKGAWTTEEDSLLRQCINKYGEGKWHQVPVRAGLNRCRKSCRLRWLNYLKPSIKRGKLSSDEVDLLLRLHRLLGNRWSLIAGRLPGRTANDVKNYWNTHLSKKHEPCCKIKMKKRDITPIPTTPALKNNVYKPRPRSFTVNNDCNHLNAPPKVDVNPPCLGLNINNVCDNSIIYNKDKKKDQLVNNLIDGDNMWLEKFLEESQEVDILVPEATTTEKGDTLAFDVDQLWSLFDGETVKFD
modifications: left off: NubG and FRB (from the vector pFRB), end not stated, kept
notes: full-length MYB75 (MYB subgroup 6), control prey for GL3
B3: MYB75 DBD: fragment comprising the MYB DBD (residues M1-P114) (protein, UniProt Q9FE25 1-114, looked up, fragment)
chain: MEGSSKGLRKGAWTTEEDSLLRQCINKYGEGKWHQVPVRAGLNRCRKSCRLRWLNYLKPSIKRGKLSSDEVDLLLRLHRLLGNRWSLIAGRLPGRTANDVKNYWNTHLSKKHEP
B4: N191A: mutated MYB29 (AAs 120-222); MIM sequence - S TS KL LAK VA ARA SS - (protein)
chain: GIDPVTHKPLAYDSNPDEQSQSGSISPKSLPPSSSKNVPEITSSDETPKYDASLSSKKRCFKRSSSTSKLLAKVAARASSMGTILGASIEGTLISSTPLSSCL
modifications: left off: NubG and FRB (from the vector pFRB), end not stated, kept
B5: A194G: mutated MYB29 (AAs 120-222); MIM sequence - S TS KL LNK VG A RA SS - (protein)
chain: B4 chain with A72N, A75G
modifications: left off: NubG and FRB (from the vector pFRB), end not stated, kept
B6: A194L: mutated MYB29 (AAs 120-222); MIM sequence - S TS KL LNK VL ARA SS - (protein)
chain: B4 chain with A72N, A75L
modifications: left off: NubG and FRB (from the vector pFRB), end not stated, kept

Columns and labels:
[1] = molecular target: T1, MYC4 N-terminal domain (L55-N253; MYC4Nt); test: Bio-layer interferometry, binding of MYC4Nt to immobilised biotinylated MIM peptides; details: for binding of MYC4Nt to immobilised peptide (in words): BLI, peptide immobilised on streptavidin biosensor, MYC4Nt dilution series
Protocol: Single colonies of freshly transformed Escherichia coli BL21(DE3), carrying the pET52u plasmid for expressing MYC4 N-terminal domain (AA55-253; MYC4Nt) with a C-terminal 6×His tag, were inoculated in LB with ampicillin and grown overnight (37°C, 200 RPM). The next day, the culture was diluted to OD600 = 0.2 with cold (4°C) LB with ampicillin and grown at 18°C (100 RPM) in a baffled Erlenmeyer flask until OD600 = 1.0 (∼7.5 h). Protein expression was induced by addition of 0.1 mM IPTG, and the cultures grew for further 18 h at 18°C (100 RPM), before harvesting the cells by centrifugation (4000 g, 20 min), and storing the bacterial pellet at −20°C until protein extraction and purification. For extraction and purification, the bacterial pellet was resuspended in BugBuster Master Mix (Merck Millipore), 2.5 ml per 50 ml bacterial culture, containing 1× ethylenediaminetetraacetic acid-free complete protease inhibitor cocktail (Roche) and 1 mM dithiothreitol (DTT). Lysis proceeded by slow end-over-end rotation at room temperature for 30 min, and the lysate was cleared by centrifugation (20.000 g, 20 min, 4°C). The supernatant was diluted five times with His binding buffer (20 mM sodium phosphate, 500 mM NaCl, 40 mM imidazole, 1 mM DTT, pH 7.4) and filtered through a 0.2-micron filter using a syringe, before applying to a HisTrap HP 5 ml (GE Healthcare) IMAC column charged with Ni(II)Cl2. After washing thoroughly, bound protein was eluted with a linear buffer gradient to elution buffer (His binding buffer with 500 mM imidazole) over 20 column volumes, and 1.9 ml fractions collected in a 96-deepwell plate. Based on absorbance at 280 nm during elution, fractions were selected for analysis by sodium dodecyl sulphate-polyacrylamide gel electrophoresis and those fractions showing only the band of the recombinant protein at 22.7 kDa were pooled and concentrated using 3-kDa cut-off PES membrane ultrafiltration centrifugal tubes (Thermo Scientific™ Pierce). Concentrated protein was centrifuged at 20 000 g, 4°C for 10 min before being dialysed overnight to PBS pH 7.4 with 1 mM DTT. Protein concentration was estimated using the Lambert–Beer law based on absorbance at 280 nm, after blanking with the dialysis buffer (dialysate) and protein was stored in aliquots at −80°C. Aliquots of dialysate were stored at −20°C.
Biotinylated peptides were synthesized by TAG Copenhagen A/S (Copenhagen, Denmark). Lyophilized peptide was resuspended in H2O to a concentration of 400–500 μM and stored in aliquots at −80°C. […] Binding was measured with a BLItz Bio-Layer Interferometer (Pall ForteBio) using the advanced kinetics program in the BLItz Pro 1.2 software. […]

[2] = molecular target: T2, MYC4 N-terminal domain (L55-N253); test: BLI
GL3 [3] = test: Split-ubiquitin assay, GL3 as bait; type: cell-based, Arabidopsis thaliana; details: yeast, SD-AHLW growth
Protocol: (§1) The rapamycin-compatible yeast strain NMY51 TOR1-1 Δfpr1 ([35]) was transformed according to DUALhunter™ kit instructions (Dualsystems biotech). Briefly, overnight 2×YPAD cultures were diluted to OD600 = 0.2, and incubated at 30°C, 150 RPM for 4–6 h in 2×YPAD, before harvesting the cells by centrifugation at 700 g for 5 min. The cells were washed with H2O, then 0.1 M LiOAc, before resuspending in 0.1 M LiOAc with 15% glycerol. The competent cells were then aliquoted and stored at −80°C until transformation. For double transformation with bait and prey plasmids, competent cells were thawed on ice, and mixed with transformation mix (240 μl 50% PEG-3350, 35 μl 1 M LiOAc and 25 μl 2 mg/ml ssDNA per transformation) and 200 ng of each plasmid, before being exposed to a 42°C heat shock in a water bath for 45 min. The cells were then chilled on ice for a few minutes, sedimented by centrifugation (3000 g, 1 min), resuspended in sterile H2O, plated on SD-LW plates and grown at 30°C for 2–3 days.
(§2) For drop tests, cells from three individual colonies of each bait/prey combination were grown overnight in liquid SD-LW media. Next day, culture densities were normalized to OD600 = 0.05, dilution series (OD600 = 0.05, OD600 = 0.005, OD600 = 0.0005 and OD600 = 0.00005) were spotted on square plates (SD-LW, SD-AHLW and SD-AHLW+Rapa) and grown for 2 days at 30°C before taking pictures.
(§3) To identify interaction sites mediating specific MYB–MYC complex formation, we selected two TFs from each family. These were MYB28 and MYB29 from MYB subgroup 12, and two of their partner bHLH TFs, MYC3 and MYC4. To define the region mediating the interactions we applied a chemically inducible dimerization split-ubiquitin system ([35]). […] This is used as an in-built positive control for correct expression and functionality of the prey fusion protein and thereby reduces the incidence of false negatives.

GL3 [4] = details: ref [32]; cited from earlier work
Excerpt: To identify interaction sites mediating specific MYB–MYC complex formation, we selected two TFs from each family. These were MYB28 and MYB29 from MYB subgroup 12, and two of their partner bHLH TFs, MYC3 and MYC4. To define the region mediating the interactions we applied a chemically inducible dimerization split-ubiquitin system ([35]). […] As controls, we included the interaction between GL3 and MYB75, where a fragment c ...

MYC3 = test: Split-ubiquitin assay, MYC3 as bait; type: cell-based, Arabidopsis thaliana; details: yeast, SD-AHLW growth
Protocol: as §1, §2, §3

MYC4 = test: Split-ubiquitin assay, MYC4 as bait; type: cell-based, Arabidopsis thaliana; details: yeast, SD-AHLW growth
Protocol: as §1, §2, §3

Molecule | binding of MYC4Nt to immobilised peptide (in words) [1] | interaction with MYC3 (in words) (MYC3) | interaction with MYC4 (in words) (MYC4) | also measured
CSCC[C@H](NC(=O)[C@H](CO)NC(=O)[C@H](CO)NC(=O)[C@H](C)NC(=O)[C@H](CCCNC(=N)N)NC(=O)[C@H](C)NC(=O)[C@H](C)NC(=O)[C@@H](NC(=O)[C@H](CCCCN)NC(=O)[C@H](CC(N)=O)NC(=O)[C@@H](NC(=O)[C@H](CC(C)C)NC(=O)[C@H](CCCCN)NC(=O)[C@H](CO)NC(=O)[C@@H](NC(=O)[C@H](CO)NC(=O)[C@H](CO)NC(=O)[C@H](CO)NC(=O)[C@H](CCCNC(=N)N)NC(=O)[C@H](CCCCN)NC(=O)[C@H](Cc1ccccc1)NC(=O)CCCC[C@@H]1SC[C@@H]2NC(=O)N[C@@H]21)[C@@H](C)O)C(C)C)C(C)C)C(=O)NCC(=O)O [L190V-MIM] (Biotin-FKRSSSTSKLVNKVAARASSMG-OH) | a strong binding signal, but at higher concentrations of MYC4Nt (>10 μM), than was necessary for the WT-MIM | – | – | affinity for MYC4Nt weaker than WT-MIM peptide ([1]; estimated, relative to WT-MIM peptide): ~10 fold
CSCC[C@H](NC(=O)[C@H](CO)NC(=O)[C@H](CO)NC(=O)[C@H](C)NC(=O)[C@H](CCCNC(=N)N)NC(=O)[C@H](C)NC(=O)[C@H](C)NC(=O)[C@@H](NC(=O)[C@H](CCCCN)NC(=O)[C@H](CC(N)=O)NC(=O)[C@H](CC(C)C)NC(=O)[C@H](CC(C)C)NC(=O)[C@H](CCCCN)NC(=O)[C@H](CO)NC(=O)[C@@H](NC(=O)[C@H](CO)NC(=O)[C@H](CO)NC(=O)[C@H](CO)NC(=O)[C@H](CCCNC(=N)N)NC(=O)[C@H](CCCCN)NC(=O)[C@H](Cc1ccccc1)NC(=O)CCCC[C@@H]1SC[C@@H]2NC(=O)N[C@@H]21)[C@@H](C)O)C(C)C)C(=O)NCC(=O)O [WT-MIM] (Biotin-FKRSSSTSKLLNKVAARASSMG-OH) | binding of MYC4Nt was observed even at sub micro molar concentrations; also recorded: stronger binding of the WT-MIM peptide compared to that of the L190V-MIM peptide | – | – | –
L190A-MIM: N-terminally biotinylated 22-residue peptide comprising the L190A MIM sequence of MYB29 (F180-G201) (Biotin-FKRSSSTSKLANKVAARASSMG) | Fit cannot converge; also recorded: an extremely weak response was seen only at high (>100 μM) concentrations of MYC4Nt; also recorded: the fit did not converge; also recorded: unable to detect binding | – | – | –
B1 | – | – | – | Kd [2]: 33 µM
B2 | – | – | – | interaction with GL3 (in words) (GL3 [3]): results in growth on SD-AHLW plates
B3 | – | – | – | interaction with GL3 (in words) (GL3 [4]): sufficient for this interaction; interaction with GL3 (in words) (GL3 [3]): results in growth on SD-AHLW plates
B4 | – | abolished the interaction | abolished the interaction | –
B5 | – | did not abolish the interaction | did not abolish the interaction | –
B6 | – | abolished the interaction with both MYC3 and MYC4 | abolished the interaction with both MYC3 and MYC4 | –
